Assay [1] deals with RBD-Fc (SARS-CoV-2 S protein amino acids 319-541 with human IgG1 Fc) (SARS-CoV-2; human, UniProt P0DTC2 319-541).
Assay [2] addresses SARS-CoV-2 S protein (wildtype) (SARS-CoV-2, UniProt P0DTC2 14-1273). Kind of assay: cell-based or functional assay.
The target in assay [3] is T1, COVID-19 S.P. RBD (Cat. #40592-V08B, SB) (SARS-CoV-2, UniProt P0DTC2 319-541).
Assay [4] addresses T1, COVID-19 S.P. RBD (Cat. #40592-V08B, SB). The source holds these as a separate data set.

This note sets out measurements from patent US20240158477A1 (BIODURO JIANGSU, published 2024).

Numbering of substitutions follows the chain as printed. Where two headings read alike, the source gives them in different places.

B1: Fc tagged nanobody VHH60 (Fc fusion)
chain: EVQLVESGGGLVQPGGSLRLSCAASGRTFRVNLMGWFRQAPGKGRELVASINGFDDITYYPDSVEGRFTISRDNAKRMVYLQMNSLRAEDTAVYYCAAYDSDYDGRLFNYWGQGTQVTVSSGSGGGGSGGGGS
Usually EC50 (read off the curve) stands for the midpoint of the concentration-response curve. As usually defined, the Kd is the free concentration of one partner at which half of the binding sites on the other are occupied at equilibrium, for simple one-to-one binding. A higher Kd goes with lower affinity. Turning to B1, the “EC50 (read off the curve)” value in assay [1] was about 0.4 nM. In assay [2], the “IC50, authentic SARS-CoV-2 neutralization on Vero-E6 cells (viral RNA by RT-PCR)” value stood at 1.53 nM and the “IC50, pseudovirus neutralization (luciferase activity in Caco-2 cells)” value stood at 7.63 nM. Further, the Kd in assay [3] is 2.56 nM.

B2: Fc tagged nanobody VHH35 (Fc fusion)
chain: EVQLVESGGGLVQPGGSLRLSCAASGSIYSFNFMGWFRQAPGKGRELVATINSFDDITYYPDSVEGRFTISRDNAKRMVYLQMNSLRAEDTAVYYCAVLGERTGISYGSAFDYWGQGTQVTVSSGSGGGGSGGGGS
Molecule B2 showed a Kd in assay [4] of 0.535 nM.

B3: Fc tagged nanobody VHH34 (Fc fusion)
chain: EVQLVESGGGLVQPGGSLRLSCAASGFIYSFNIMGWFRQAPGKGRELVASINWFSDITYYPDSVEGRFTISRDNAKRMVYLQMNSLRAEDTAVYYCAAYLLRGDDRYYATYSYWGQGTQVTVSSGSGGGGSGGGGS
Molecule B3 showed a Kd in assay [3] of 2.79 nM.

B4: Fc tagged nanobody VHH82 (Fc fusion)
chain: B3 chain with N52S, W53S, F54Y, S55D
Consider B4, for which, in assay [3], the dissociation constant Kd is 2.29 nM.

B5: Fc tagged nanobody VHH79 (Fc fusion)
chain: EVQLVESGGGLVQPGGSLRLSCAASGFTSRNYFMGWFRQAPGKGRELVATINSLSSITYYPDSVEGRFTISRDNAKRMVYLQMNSLRAEDTAVYYCAVYTPTTGPGEGSYTPWHDYWGQGTQVTVSSGSGGGGSGGGGS
On to B5, for which binding in assay [3] was characterised by a dissociation constant (Kd) of 3.44 nM.

B6: Fc tagged nanobody VHH43 (Fc fusion)
chain: EVQLVESGGGLVQPGGSLRLSCAASGFISDADIMGWFRQAPGKGRELVASINSYDSITYYPDSVEGRFTISRDNAKRMVYLQMNSLRAEDTAVYYCAVRVHSRDFSYWGQGTQVTVSSGSGGGGSGGGGS
B6 came in with a Kd in assay [3] of 1.44 nM.

B7: Fc tagged nanobody VHH80 (Fc fusion)
chain: EVQLVESGGGLVQPGGSLRLSCAASGFISNFNLMGWFRQAPGKGRELVATINSFDDITYYPDSVEGRFTISRDNAKRMVYLQMNSLRAEDTAVYYCAAEVRSSLDYALWTSRRSAFSYWGQGTQVTVSSGSGGGGSGGGGS
Turning to B7, in assay [3], the affinity, expressed as Kd, was 4.27 nM.
